Consider one molecule from US20020173625A1.

The target in the test is grass pollen allergic patients' IgE antibodies. In words: ELISA competition; sera of 20 patients preadsorbed with 10 ug/ml rPhl p 6; competitor: plate-bound rPhl p 6. On the technique in general: An ELISA detects its analyte on a solid surface through an enzyme-linked reagent.

B1: recombinant Phl p 6 (protein, timothy grass, UniProt P43215 23-132, looked up)
chain: GKATTEEQKLIEDVNASFRAAMATTANVPPADKYKTFEAAFTVSSKRNLADAVSKAPQLVPKLDEVYNAAYNAADHAAPEDKYEAFVLHFSEALRIIAGTPEVHAVKPGA
For B1, the % inhibition of IgE binding was determined as 80%.
